The target in data set [1] is gp96 (Homo sapiens, UniProt P14625). Nature of the data set: In vitro binding of IPF with heat shock protein gp96. From the text:
FIG. 9 is a graph showing binding of an IPF with heat shock protein gp96 at dilutions of IPF 1/2500, IPF 1/500 and IPF 1/100, according to one embodiment of the present invention. A number of approaches may be used to detect complexing between IPF and gp96. By way of example, one such approach may be to obtain specific antibodies against IPF and gp96 and to build a sandwich immunoassay by suitable methods known in the art to detect the presence of these protein complexes. To detect binding of gp96 to IPF, the antigen may be coated on a plate to capture proteins from the sample and then report the binding with a specific detection antibody. The secondary (or detection) antibody may be directly labeled with MSD SULFO-TAG NHS ester or a SULFO-TAG-labeled anti-species, e.g., anti-mouse if the […] antibody is raised in mouse and the […] antibody is raised in a different species than the capture or primary antibody. Antibodies specific to IPF-gp96 complexes may also be used.

Data set [2] has as its target human CD4 (Homo sapiens, UniProt P01730). Nature of the data set: Biacore (SPR) binding of IPF to human CD4. As to conditions: in vitro. As for the experimental part: (§1) BIACORE assays were used for binding affinity. This technology measures mass concentration of biomolecules close to a surface. The surface is made specific by attaching one of the interacting partners. Sample containing the other partner(s) flows over the surface: when molecules from the sample bind to the interactant attached to the surface, the local concentration changes and an SPR (surface plasmon resonance) response is measured. The response is directly proportional to the mass of molecules that bind to the surface. The SPR response may be expressed by resonance units (RU). One RU represents change of 0.0001 in the angle of the intensity minimum which is equivalent to a change in concentration of […].
(§2) The exact conversion factor between RU and surface concentration depends on properties of the sensor surface and the nature of the molecule responsible for the concentration change.
(§3) The assays for these bindings were conducted by The Institute for Molecular Medicine using standard protocols.
The BIACORE biosensor instrument for detecting compound ligand interaction. BIACORE may capture proteins including molecules from ctyosolic or tissue extracts on sensor surfaces and measure the binding kinetics. SPR is an optical technique that measures the refractive index change occurring at the sensor liquid-fluid interface layer. […]

Data set [3] can be described thus: Biacore (SPR) binding of IPF to human serum. As to conditions: in vitro. The protocol: as §1, §2, §3
The conditions of data set [4]: stated in contrast to IPF; cited from earlier work.

“Also recorded” adds a separate entry of the source. Where no end group is shown, it is not given here.

We go through seven substances from patent publication US8309072B2, “Irreversibly-inactivated pepsinogen fragments for modulating immune function” (The Zhabilov Trust, priority 2004, dated 2012).

gp96, sequence (P14625 22-803): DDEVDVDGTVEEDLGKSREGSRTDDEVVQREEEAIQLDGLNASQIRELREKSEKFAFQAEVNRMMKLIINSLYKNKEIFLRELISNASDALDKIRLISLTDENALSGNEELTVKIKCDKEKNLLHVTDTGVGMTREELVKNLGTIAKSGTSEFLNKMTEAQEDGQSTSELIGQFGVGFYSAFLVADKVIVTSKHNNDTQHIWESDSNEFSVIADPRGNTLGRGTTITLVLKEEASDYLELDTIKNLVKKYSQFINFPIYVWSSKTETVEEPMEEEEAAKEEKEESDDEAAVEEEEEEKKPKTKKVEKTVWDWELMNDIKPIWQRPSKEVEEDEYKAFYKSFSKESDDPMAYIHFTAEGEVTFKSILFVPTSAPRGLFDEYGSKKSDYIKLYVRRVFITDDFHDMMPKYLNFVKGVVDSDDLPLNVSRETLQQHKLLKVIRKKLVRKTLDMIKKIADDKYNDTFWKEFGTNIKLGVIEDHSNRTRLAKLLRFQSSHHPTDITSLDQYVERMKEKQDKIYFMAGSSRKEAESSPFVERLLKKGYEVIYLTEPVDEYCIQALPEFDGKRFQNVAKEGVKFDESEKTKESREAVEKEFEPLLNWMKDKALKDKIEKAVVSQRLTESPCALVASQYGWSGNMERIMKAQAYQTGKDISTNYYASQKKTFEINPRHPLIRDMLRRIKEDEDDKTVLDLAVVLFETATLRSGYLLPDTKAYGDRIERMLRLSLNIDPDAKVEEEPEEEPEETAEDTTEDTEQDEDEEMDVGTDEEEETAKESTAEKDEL

On to “IPF-1: peptide of SEQ ID NO 1, TLTSGGGAIALPPSMAAPPLGPVAPLTGAIHAPTXG, fragment of approximately 45 kDa from porcine pepsinogen (not fully specified; X: residue not identified in the source; listed as Sus scrofa)”, for which the “in vitro binding affinity for gp96” value in data set [1] is “significant in vitro binding affinity”. Same read-out and setting: to “IPF-2: peptide of SEQ ID NO 2, TLSTATGGAIPPVAAMPPGLVAPTHGPAIHP, from porcine pepsinogen (listed as Sus scrofa)” belongs “significant in vitro binding affinity”. Still for that read-out and setting: to “IPF-3: peptide of SEQ ID NO 3, NXVPVSVEGYXQITLDSITX, fragment of approximately 13.5 kDa from porcine pepsinogen (not fully specified; X: residue not identified in the source; listed as Sus scrofa)” belongs “significant in vitro binding affinity”; to “IPF-4: peptide of SEQ ID NO 4, MTLTTGSGAIAPAMPPGLPPHTGAIHAPM, from porcine pepsinogen (listed as Sus scrofa)”, “significant in vitro binding affinity”; to “IPF-5: peptide of SEQ ID NO 5, CCATSGPCGAVMILTPHLTA, from porcine pepsinogen (listed as Sus scrofa)”, “significant in vitro binding affinity”. Consider “IPF-6: antiviral peptide characterized by SEQ ID NO 6, GDEPLENYLDTEYF, isolated from 45 kDa band of porcine pepsinogen preparation (listed as Sus scrofa)”, for which, in data set [2], the “binding with human CD4+ cells” value is reported as “significant in vitro binding affinity; also recorded: demonstrates binding in vitro”. In addition, in data set [3], the “binding with human serum” value is reported as “demonstrates binding in vitro”. As to “Pepsin: porcine pepsin A, the starting material, compared for pI”, in data set [4], the pI entry is “low”.
